The values that follow come from patent publication US20080279957A1, “Immunomodulating compositions from bile” (Lorus Therapeutics Inc., priority 2000, published 2008).

In data set [1] the test system is tumor cells (monocyte cytotoxicity assay). The data set is described as follows: Effect of indomethacin on tumoricidal function of cancer patients' monocytes (Example 15). Particulars: for regulation of tumoricidal function by an indomethacin-sensitive function: indomethacin up to 5 ng/ml.
Data set [2] deals with mouse hybridoma cell line HYB #6-1. As to the kind of experiment: Antiproliferative bioassay in mouse hybridoma cells (Example 4). Particulars: procedure of Example 4. In kind it is cell-based. The procedure:
The bioassay is carried out as follows. […] Hybridoma cell samples are specifically quantitated. Using a hemocytometer the calls in a 100 μl sample are counted. The cells are concentrated by centrifugation and then cell concentration is adjusted to 1,000 cells/ml (twice the final desired concentration) by addition of appropriate volumes of fresh media. […] After 96 hours, each well is sampled at 100 μl×3 and placed in a 96 well plate. (A blank of 100 μl of medium without cells is included.) Cell density is determined using a PROMEGA CellTiter 96 kit. Cell concentration is measured by reading absorbance at 595 nm (650 nm reference) and recorded by ELISA plate reader. For each assay, a standard curve of cell concentration is prepared. Cultured cells in the log phase of growth are sampled, counted, concentrated and resuspended in serial dilutions. Each dilution is sampled at 100 μl×3 and placed in a 96 well plate. The standard curve is constructed by plotting cell density versus “net” OD at 595 nm after subtraction of zero cell blanks and OD at 650 nm. Cell density of unknown samples is determined by interpolation.

For a further data set, the system named is lymphocytes. The data set is described as follows: Stimulation of lymphocyte DNA synthesis. In kind it is cell-based, human. Particulars: optimal stimulating concentration of PHA. The procedure:
These indicators of immune function also can be modulated in cancer patients who are treated with different biological response modifying agents such as interferon or interleukin-2.
1) Stimulation of Lymphocyte DNA Synthesis: Comparison with an Optimal Stimulating Concentration of Phytohemagglutinin (PHA)

Data set [3] deals with tumor cells (monocyte cytotoxicity assay). The data set is described as follows: Tumor cytotoxicity of peripheral blood monocytes from patients with gynecological disease (Example 14). The conditions noted are these: Monocyte/Tumor Cell ratio 15/1; 7 patients (3 benign, 4 malignant); composition 1:10 of batch 222, gamma interferon 100 U/ml, interleukin-12 500 U/ml, monocyte-CSF 500 U/ml.
Excerpt: More particularly, the patient population consisted of 7 patients, 3 with benign disease and 4 with malignant disease (2 ovarian cancers, 1 endometrial cancer, and 1 cervical cancer). Samples were removed from patients at the time of surgical procedure.

For data set [4] the test system is unchanged. As to the kind of experiment: Tumor cytotoxicity of peritoneal macrophages from patients with gynecological disease (Example 14). In kind it is cell-based, human. Particulars: Monocyte/Tumor Cell ratio 15/1; 7 patients (3 benign, 4 malignant); composition 1:10 of batch 222, gamma interferon 100 U/ml, interleukin-12 500 U/ml, monocyte-CSF 500 U/ml. The text has this:
Immunother 32:55-61, 1990.

Take `CCCCCCCCCCCCCC(=O)O[C@@H]1[C@@H](C)[C@@]2(O)[C@@H](C=C(CO)C[C@]3(O)C(=O)C(C)=C[C@@H]23)[C@@H]2C(C)(C)[C@]12OC(C)=O` [Phorbol Ester (PNA)]: in data set [1], the “regulation of tumoricidal function by an indomethacin-sensitive function” value (shortened to “regulation of tumoricidal function”) is given as “not regulated by an indomethacinsensitive function”. In the case of `C[C@H](CCC(=O)NCCS(=O)(=O)O)[C@H]1CC[C@H]2[C@@H]3[C@H](O)C[C@@H]4C[C@H](O)CC[C@]4(C)[C@H]3C[C@H](O)[C@]12C` [sample (1), taurocholic acid], the “anti-proliferative activity, in words” value in data set [2] was “Neither sample (1) nor sample (2) had any detectable anti-proliferative effect”. Still for that read-out and setting: next, `N.O` [sample (2), NH3.H2O]: “Neither sample (1) nor sample (2) had any detectable anti-proliferative effect”.

With Phytohemagglutinin [PHA], in the data set with lymphocytes, the “Stimulation of lymphocyte DNA synthesis” value is 125,817 Counts per Minute. Take gamma interferon [IFN-γ]: in data set [1], the “regulation of tumoricidal function” value was “regulated by an indomethacin-sensitive function”. In the case of “granulocyte macrophage colony stimulating factor [GM-CSF]”, the “regulation of tumoricidal function” value in data set [1] was “regulated by an indomethacin-sensitive function”. For the molecule interleukin-12 [IL-12], the “regulation of tumoricidal function” value in data set [1] is “not regulated by an indomethacinsensitive function”. Further, the “% Tumor Cytotoxicity (+/−S.E.) Peripheral Blood” value in data set [3] is on record as 26.0 ± 4%. The “% Tumor Cytotoxicity (+/−S.E.) Peritoneal Macrophage” value in data set [4] worked out at 8.5 ± 2%.

B1: monocyte-CSF (protein, UniProt P09603 33-554, looked up)
Macrophage colony-stimulating …: EEVSEYCSHMIGSGHLQSLQRLIDSQMETSCQITFEFVDQEQLKDPVCYLKKAFLLVQDIMEDTMRFRDNTPNAIAIVQLQELSLRLKSCFTKDYEEHDKACVRTFYETPLQLLEKVKNVFNETKNLLDKDWNIFSKNCNNSFAECSSQDVVTKPDCNCLYPKAIPSSDPASVSPHQPLAPSMAPVAGLTWEDSEGTEGSSLLPGEQPLHTVDPGSAKQRPPRSTCQSFEPPETPVVKDSTIGGSPQPRPSVGAFNPGMEDILDSAMGTNWVPEEASGEASEIPVPQGTELSPSRPGGGSMQTEPARPSNFLSASSPLPASAKGQQPADVTGTALPRVGPVRPTGQDWNHTPQKTDHPSALLRDPPEPGSPRISSLRPQGLSNPSTLSAQPQLSRSHSSGSVLPLGELEGRRSTRDRRSPAEPEGGPASEGAARPLPRFNSVPLTDTGHERQSEGSFSPQLQESVFHLLVPSVILVLLAVGGLLFYRWRRRSHQEPQRADSPLEQPEGSPLTQDDRQVELPV
B1: in data set [1], the “regulation of tumoricidal function” value is listed as “regulated by an indomethacin-sensitive function”. The “% cytotoxicity” value in data set [1] (peripheral blood monocytes from cancer patients, activator alone or with indomethacin (up to 5 ng/ml) added simultaneously) came out at 14.1 ± 3%. Moreover, the “% Tumor Cytotoxicity (+/−S.E.) Peripheral Blood” value in data set [3] was found to be 16.0 ± 2%. For the same molecule, in data set [4], the “% Tumor Cytotoxicity (+/−S.E.) Peritoneal Macrophage” value stood at 7.0 ± 2%.

B2: gamma interferon (protein, UniProt P01579 24-161, looked up)
Interferon gamma: QDPYVKEAENLKKYFNAGHSDVADNGTLFLGILKNWKEESDRKIMQSQIVSFYFKLFKNFKDDQSIQKSVETIKEDMNVKFFNSNKKKRDDFEKLTNYSVTDLNVQRKAIHELIQVMAELSPAAKTGKRKRSQMLFRG
B2: in data set [3], the “% Tumor Cytotoxicity (+/−S.E.) Peripheral Blood” value stood at 18.3 ± 2%. Moreover, the “% Tumor Cytotoxicity (+/−S.E.) Peritoneal Macrophage” value in data set [4] is 9.5 ± 1%.
